Assays:
[1] = target: purified α-dystroglycan (α-DG) (UniProt Q28685); assay: far-Western, overlay or dot blot
[2] = target: high affinity virus binders; assay: competitive inhibition binding assay
[3] = target: low affinity viral binders; assay: competitive inhibition binding assay

“LCMV WE c54 (purified virus; viral glycoprotein GP1/GP2) (complex)” showed a logs higher affinity than WE c2.2 [1] of 3 logs.

B1: soluble α-DG (receptor)
chain: HWPSEPSEAVRDWENQLEASMHSVLSDLHEALPTVVGIPDGTAVVGRSFRVTIPTDLIGSSGEVIKVSTAGKEVLPSWLHWDPQSHTLEGLPLDTDKGVHYISVSAAQLDANGSHIPQTSSVFSIEVYPEDHSEPQSVRAASPDLGEAAASACAAEEPVTVLTVILDADLTKMTPKQRIDLLHRMQSFSEVELHNMKLVPVVNNRLFDMSAFMAGPGNAKKVVENGALLSWKLGCSLNQNSVPDIRGVEAPAREGTMSAQLGYPVVGWHIANKKPPLPKRIRRQIHATPTPVTAIGPPTTAIQEPPSRIVPTPTSPAIAPPTETMAPPVRDPVPGKPTVTTRTRGAIIQTPTLGPIQPTRVSDAGTVVSGQIRATVTIPGYVEPTAVATPPTTTTKKPRVSTPKPATPSTDSSATTTRRPTKKPRTPRPVPRVTTKAPITRLETASPPTRIRTTTSGVPRGGEPNQRPELKNHIDRVDAWVGTYFEVKIPSDTFYDKEDTTTDKLKLTLKLREQQLVGEKSWVQFNSNSQLMYGLPDSSHVGKHEYFMHATDKGGLSAVDAFEIHVHKRPQGDKAPARFKAKFVGDPAPVVNDIHKKIALVKKLAFAFGDRNCSTVTLQNITRG
In the case of B1, the concentration of soluble α-DG for 33% blocking of virus binding to α-DG cells [2] is reported as 1 to 4 nM and the concentration of soluble α-DG needed to block virus binding to α-DG cells [3] is reported as over 400 nM.

— publication PMC2193355
